We go through five molecules from paper PMC10877310 (Current biology : CB, 2023).

Assay [1] deals with porcine brain tubulin dimers (porcine, UniProt P02550 1-451; Q767L7 1-444). Put plainly: BLI. On the technique in general: BLI is a label-free optical method that tracks binding on a fibre tip over time.
In assay [2] the target is microtubules polymerised from porcine brain tubulin (porcine), P02550. The assay is described as follows: co-sedimentation.
Chain of microtubules polymerised from porcine brain tubulin (porcine), P02550 (P02550 whole entry, chain 1 of 2): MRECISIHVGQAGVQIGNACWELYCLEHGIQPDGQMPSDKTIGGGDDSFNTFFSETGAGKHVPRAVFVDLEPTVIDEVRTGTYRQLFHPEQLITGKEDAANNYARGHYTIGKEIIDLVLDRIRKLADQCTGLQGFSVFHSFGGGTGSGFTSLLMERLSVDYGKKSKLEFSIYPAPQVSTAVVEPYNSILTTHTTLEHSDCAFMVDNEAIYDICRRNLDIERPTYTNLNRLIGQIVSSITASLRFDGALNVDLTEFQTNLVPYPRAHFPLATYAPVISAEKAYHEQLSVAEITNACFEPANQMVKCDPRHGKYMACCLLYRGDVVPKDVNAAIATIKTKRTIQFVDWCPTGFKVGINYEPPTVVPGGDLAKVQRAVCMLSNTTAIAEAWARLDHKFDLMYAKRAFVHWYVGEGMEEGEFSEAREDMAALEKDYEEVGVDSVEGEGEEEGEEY
Chain of microtubules polymerised from porcine brain tubulin (porcine), P02550 (P02554 whole entry, chain 2 of 2, further chain): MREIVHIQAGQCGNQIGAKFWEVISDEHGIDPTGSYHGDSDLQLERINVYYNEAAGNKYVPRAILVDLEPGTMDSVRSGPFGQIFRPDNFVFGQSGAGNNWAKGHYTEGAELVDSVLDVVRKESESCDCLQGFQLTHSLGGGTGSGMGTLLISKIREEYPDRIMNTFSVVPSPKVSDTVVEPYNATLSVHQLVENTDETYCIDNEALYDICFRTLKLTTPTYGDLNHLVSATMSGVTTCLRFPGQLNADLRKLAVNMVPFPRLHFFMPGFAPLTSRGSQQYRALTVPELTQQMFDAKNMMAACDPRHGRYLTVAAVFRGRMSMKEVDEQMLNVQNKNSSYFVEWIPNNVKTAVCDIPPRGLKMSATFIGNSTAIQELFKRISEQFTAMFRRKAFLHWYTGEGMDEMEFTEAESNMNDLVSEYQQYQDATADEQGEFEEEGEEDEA

B1: 6XHis-1024-1090 (Abl2-1024-1090, site II) (domain or fragment, murine, UniProt Q4JIM5 1024-1090, looked up)
chain: KAAPGPVPSSGKPGRPVMPPPQVPLPTSSISPAKMANGTAGTKVALRKTKQAAEKISADKISKEALL
In the case of B1, in assay [1], binding was characterised by a dissociation constant (Kd) of 0.252 ± 0.123 µM.

B2: 6XHis-557-C (Abl2-557-1182, C-terminal half) (domain or fragment, murine, UniProt Q4JIM5 557-1182, looked up)
chain: GRTASSSSVVPYLPRLPLLPSKTRTLRKQGENKENLDGGLDAAESLASSSAPAGFIRSTQASSGSPALPRKQRDKSPSSLLEDAKETCFTRDRKGGFFSSFMKKRNAPTPPKRSSSFREMENQPHKKYELTGNFSPVASLQNADGFSVAPSQQEPNLVPAKCYGGSFAQRNLCADDDSGGGGGSGTAGGGWSGITGFFTPRLIKKTLGLRAGKPTASDDTSKPFPRSNSTSSMSSGLPEQDRMAMTLPRNCQRSKLQLERTVSTSSQPEENVDRANDMLPKKSEEGAAPARERPKAKLLPRGATALPLRAPDPAITESDSPGVGVAGVAAAPKGKERNGGTRLGVAGVPEDGEQLGWSSPAKAVAVLPTTHNHKVPVLISPTLKHTPADVQLIGTDSQGNKFKLLSEHQVTSSGDKDRPRRVKPKCAPPPPPVMRLLQHPSTCSDPEEEPTAPPAGQHTPETQEGGKKAAPGPVPSSGKPGRPVMPPPQVPLPTSSISPAKMANGTAGTKVALRKTKQAAEKISADKISKEALLECADLLSSAITEPVPNSQLVDTGHQLLDYCSGYVDSIPQTRNKFAFREAVSKLELSLQELQVSSTAAGVPGTNPVLNNLLSCVQEISDVVQR
As to B2, binding in assay [1] was characterised by a dissociation constant (Kd) of 0.017 ± 0.008 µM.

B3: Abl2-eGFP, Q4JIM5 74-1182 (natural protein)
chain: EVLHRPFGCDAESQALNEAIRWSSKENLLGATESDPNLFVALYDFVASGDNTLSITKGEKLRVLGYNQNGEWSEVRSKNGQGWVPSNYITPVNSLEKHSWYHGPVSRSAAEYLLSSLINGSFLVRESESSPGQLSISLRYEGRVYHYRINTTTDSKVYVTAESRFSTLAELVHHHSTVADGLVTTLHYPAPKCNKPTVYGVSPIHDKWEMERTDITMKHKLGGGQYGEVYVGVWKKYSLTVAVKTFKEDTMEVEEFLKEAAVMKEIKHPNLVQLLGVCTLEPPFYIVTEYMPYGNLLDYLRECSREEVTAVVLLYMATQISSAMEYLEKKNFIHRDLAARNCLVGENHVVKVADFGLSRLMTGDTYTAHAGAKFPIKWTAPESLAYNTFSIKSDVWAFGVLLWEIATYGMSPYPGIDLSQVYDLLEKGYRMEQPEGCPPKVYELMRACWKWSPADRPSFAETHQAFETMFHDSSISEEVAEELGRTASSSSVVPYLPRLPLLPSKTRTLRKQGENKENLDGGLDAAESLASSSAPAGFIRSTQASSGSPALPRKQRDKSPSSLLEDAKETCFTRDRKGGFFSSFMKKRNAPTPPKRSSSFREMENQPHKKYELTGNFSPVASLQNADGFSVAPSQQEPNLVPAKCYGGSFAQRNLCADDDSGGGGGSGTAGGGWSGITGFFTPRLIKKTLGLRAGKPTASDDTSKPFPRSNSTSSMSSGLPEQDRMAMTLPRNCQRSKLQLERTVSTSSQPEENVDRANDMLPKKSEEGAAPARERPKAKLLPRGATALPLRAPDPAITESDSPGVGVAGVAAAPKGKERNGGTRLGVAGVPEDGEQLGWSSPAKAVAVLPTTHNHKVPVLISPTLKHTPADVQLIGTDSQGNKFKLLSEHQVTSSGDKDRPRRVKPKCAPPPPPVMRLLQHPSTCSDPEEEPTAPPAGQHTPETQEGGKKAAPGPVPSSGKPGRPVMPPPQVPLPTSSISPAKMANGTAGTKVALRKTKQAAEKISADKISKEALLECADLLSSAITEPVPNSQLVDTGHQLLDYCSGYVDSIPQTRNKFAFREAVSKLELSLQELQVSSTAAGVPGTNPVLNNLLSCVQEISDVVQR
Regarding B3, in assay [2], the Kd (as a rule, the free concentration of one partner at which half of the binding sites on the other are occupied at equilibrium, for simple one-to-one binding) turned out to be 0.32 µM.

B4: Abl2Δ688-790-eGFP, Q4JIM5 74-1182 (natural protein)
chain: EVLHRPFGCDAESQALNEAIRWSSKENLLGATESDPNLFVALYDFVASGDNTLSITKGEKLRVLGYNQNGEWSEVRSKNGQGWVPSNYITPVNSLEKHSWYHGPVSRSAAEYLLSSLINGSFLVRESESSPGQLSISLRYEGRVYHYRINTTTDSKVYVTAESRFSTLAELVHHHSTVADGLVTTLHYPAPKCNKPTVYGVSPIHDKWEMERTDITMKHKLGGGQYGEVYVGVWKKYSLTVAVKTFKEDTMEVEEFLKEAAVMKEIKHPNLVQLLGVCTLEPPFYIVTEYMPYGNLLDYLRECSREEVTAVVLLYMATQISSAMEYLEKKNFIHRDLAARNCLVGENHVVKVADFGLSRLMTGDTYTAHAGAKFPIKWTAPESLAYNTFSIKSDVWAFGVLLWEIATYGMSPYPGIDLSQVYDLLEKGYRMEQPEGCPPKVYELMRACWKWSPADRPSFAETHQAFETMFHDSSISEEVAEELGRTASSSSVVPYLPRLPLLPSKTRTLRKQGENKENLDGGLDAAESLASSSAPAGFIRSTQASSGSPALPRKQRDKSPSSLLEDAKETCFTRDRKGGFFSSFMKKRNAPTPPKRSSSFREMENQPHKKYELTSGLPEQDRMAMTLPRNCQRSKLQLERTVSTSSQPEENVDRANDMLPKKSEEGAAPARERPKAKLLPRGATALPLRAPDPAITESDSPGVGVAGVAAAPKGKERNGGTRLGVAGVPEDGEQLGWSSPAKAVAVLPTTHNHKVPVLISPTLKHTPADVQLIGTDSQGNKFKLLSEHQVTSSGDKDRPRRVKPKCAPPPPPVMRLLQHPSTCSDPEEEPTAPPAGQHTPETQEGGKKAAPGPVPSSGKPGRPVMPPPQVPLPTSSISPAKMANGTAGTKVALRKTKQAAEKISADKISKEALLECADLLSSAITEPVPNSQLVDTGHQLLDYCSGYVDSIPQTRNKFAFREAVSKLELSLQELQVSSTAAGVPGTNPVLNNLLSCVQEISDVVQR
Consider B4, for which, in assay [2], the Kd was determined as 0.4 µM.

B5: 6XHis-688-924 (Abl2-688-924, site I) (domain or fragment, murine, UniProt Q4JIM5 688-924, looked up)
chain: GNFSPVASLQNADGFSVAPSQQEPNLVPAKCYGGSFAQRNLCADDDSGGGGGSGTAGGGWSGITGFFTPRLIKKTLGLRAGKPTASDDTSKPFPRSNSTSSMSSGLPEQDRMAMTLPRNCQRSKLQLERTVSTSSQPEENVDRANDMLPKKSEEGAAPARERPKAKLLPRGATALPLRAPDPAITESDSPGVGVAGVAAAPKGKERNGGTRLGVAGVPEDGEQLGWSSPAKAVAVLP
Take B5: the Kd in assay [1] was 0.118 ± 0.039 µM.
